Experimental findings from article PMC9889658, “The structure of MadC from Clostridium maddingley reveals new insights into class I lanthipeptide cyclases” (Frontiers in Microbiology, 2022) are described below.

A word on the Kd: it is the free concentration of one partner at which half of the binding sites on the other are occupied at equilibrium, for simple one-to-one binding. A low value points to tighter binding.

Common to all, as to details: both partners purified
Experiment [1] addresses T1, MadC (lanthionine cyclase of Clostridium sp. maddingley), His6-tag cleaved off (Clostridium sp. maddingley).
T1 construct: MadC, class I lanthipeptide cyclase, Clostridium sp. maddingley, NCBI EKQ50560.1, synthetic gene from GenScript in pET28b(+); calculated molecular weight 49.71 kDa; also called cleaved MadC; class I cyclase MadC; not shown: His6, N-terminal, cleaved
The experiment in a line: ITC; MadC (200–600 μM) in the syringe, 20 injections of 2 μl into the cell with the leader variant (20–60 μM); 25°C; 50 mM HEPES, 500 mM NaCl, pH 7.5; at least triplicate. A general note: ITC needs no label: the signal is the heat of the interaction.

In experiment [2] the target is T2, His6-MadC (hexa-histidine tagged cyclase MadC, wild type) (Clostridium sp. maddingley).
T2 construct: MadC, class I lanthipeptide cyclase, Clostridium sp. maddingley, NCBI EKQ50560.1, in pET28b(+) with N-terminal His6-tag and thrombin cleavage site; Thrombin cleavage site between the tag and MadC; Captured by the His-tag on the Ni-NTA chip in SPR; also the crystallised form (PDB 8BYK); also called wild-type MadC; not shown: His6, N-terminal, kept
In words: SPR; His6-MadC variant captured on a poly-NTA (Ni2+) chip to 400–500 RU; L3 injected at 180 nM to 30 μM; 200 mM NaCl, 50 mM HEPES/NaOH pH 8; affinity from the maximum RU values. (In general: In SPR one partner is held on a chip, and binding of the other changes the refractive index at the surface.)

The target in experiment [3] is T1, MadC (lanthionine cyclase of …). The experiment in a line: ITC; MadC (200–600 μM) in the syringe, 20 injections of 2 μl into the cell with the leader variant (20–60 μM); 25°C; 50 mM HEPES, 500 mM NaCl, pH 7.5; at least triplicate. The source holds these as a separate data set.

B1: maddinglicin leader peptide construct madL3, Leader 3 (−23 − +10) (peptide)
chain: MGKLDDFDLDVKVKADTTKVGPAITSKSLCTPG
modifications: synthetic, unmodified peptide (no lanthionine rings); MadA 1-33 from Table S4
For B1, the Kd in experiment [1] came to 5.69 µM; in experiment [2], 16 ± 7 µM.

B2: maddinglicin leader peptide construct madL1, Leader 1 (−23 – −1) (peptide)
chain: MGKLDDFDLDVKVKADTTKVGPA
As to B2, the Kd in experiment [1] turned out to be 10.4 µM; in experiment [3] it was 10.5 ± 4.3 µM.

B3: maddinglicin leader peptide construct madL2, Leader 2 (−23 − +5) (peptide)
chain: MGKLDDFDLDVKVKADTTKVGPAITSKS
The molecule B3 returned a Kd in experiment [1] of 9.35 µM.
